Tests used:
[1] = molecular target: NL4-3 gp140 trimer (soluble, uncleaved gp140 from the X4 HIV-1 subtype B strain NL4-3) (HIV-1 (subtype B, strain NL4-3)); test: negative-stain electron microscopy, single particle 3D reconstruction; purified trimers, ~0.02 mg/ml, 2% uranyl formate, about 3,000 particles per data set, C3 symmetry applied, resolution ~25 Å
[2] = molecular target: NL4-3/ADA gp140 trimer (hybrid: NL4-3 gp140 with the V3 spanning region of the R5 strain ADA) (HIV-1 (subtype B, strain NL4-3) | HIV-1 (subtype B, strain ADA)); test: as above

Substance “NL4-3 gp140 trimer (soluble, uncleaved gp140 from the X4 HIV-1 subtype B strain NL4-3) (domain or fragment)” has a stoichiometry N [1] of 3.
For “NL4-3/ADA gp140 trimer (hybrid: NL4-3 gp140 with the V3 spanning region of the R5 strain ADA) (domain or fragment)”, the stoichiometry N [2] was 3.

— PMC4048260
